Results on one molecule are retold here after doi:10.1101/2024.07.16.603698 (bioRxiv, 2024).

The target of the experiment is full-length GST-tagged SARS-CoV-2 Nucleocapsid (N) protein (SARS-CoV-2, UniProt P0DTC9 1-419). The experiment can be described thus: pull-down.

B1: human UPF2 truncated construct lacking 120 and 45 residues at the N- and C-termini (domain or fragment)
chain: MKEKEESIQLHQEAWERHHLRKELRSKNQNAPDSRPEENFFSRLDSSLKKNTAFVKKLKTITEQQRDSLSHDFNGLNLSKYIAEAVASIVEAKLKISDVNCAVHLCSLFHQRYADFAPSLLQVWKKHFEARKEEKTPNITKLRTDLRFIAELTIVGIFTDKEGLSLIYEQLKNIINADRESHTHVSVVISFCRHCGDDIAGLVPRKVKSAAEKFNLSFPPSEIISPEKQQPFQNLLKEYFTSLTKHLKRDHRELQNTERQNRRILHSKGELSEDRHKQYEEFAMSYQKLLANSQSLADLLDENMPDLPQDKPTPEEHGPGIDIFTPGKPGEYDLEGGIWEDEDARNFYENLIDLKAFVPAILFKDNEKSCQNKESNKDDTKEAKESKENKEVSSPDDLELELENLEINDDTLELEGGDEAEDLTKKLLDEQEQEDEEASTGSHLKLIVDAFLQQLPNCVNRDLIDKAAMDFCMNMNTKANRKKLVRALFIVPRQRLDLLPFYARLVATLHPCMSDVAEDLCSMLRGDFRFHVRKKDQINIETKNKTVRFIGELTKFKMFTKNDTLHCLKMLLSDFSHHHIEMACTLLETCGRFLFRSPESHLRTSVLLEQMMRKKQAMHLDARYVTMVENAYYYCNPPPAEKTVKKKRPPLQEYVRKLLYKDLSKVTTEKVLRQMRKLPWQDQEVKDYVICCMINIWNVKYNSIHCVANLLAGLVLYQEDVGIHVVDGVLEDIRLGMEVNQPKFNQRRISSAKFLGELYNYRMVESAVIFRTLYSFTSFGVNPDGSPSSLDPPEHLFRIRLVCTILDTCGQYFDRGSSKRKLDCFLVYFQRYVWWKKSLEVWTKDHPFPIDIDYMISDTLELLRPKIKLCNSLEESIRQVQDLEREFLIKLGLVNDKDSKDSMTEGENLEEDEEEEEGGAETEEQSGNESEVNEPEEEEGSDNDDDEGEEEEEENTDYLTDSNKENETDEENTEVMIKGGGLKHVPCVEDEDFIQALDKMMLENLQQRSGESVKVHQLDVAIPLHLKSQLRKGPPLGGGEGEAESADTMPFVMLTRKGNKQQFKILNVPMSSQLAANHWNQQQAEQEERMRMKKLTLDINERQEQED
Regarding B1, the binding result is “binds”.
